Data: the supplement of paper PMC10065799, “High-throughput profiling of sequence recognition by tyrosine kinases and SH2 domains using bacterial peptide display” (eLife, 2023)

Key:
[1] = biological target: Grb2 SH2 (UniProt P62993); assay: SH2 binding enrichment of the phosphorylated peptide, bacterial display (enrichment ratio); higher = better substrate or ligand; peptides without Tyr show the background
[2] = biological target: c-Src SH2; assay: as above
[3] = biological target: SHP2-C SH2; assay: as above
[4] = biological target: EPHB2 (UniProt P29323); assay: phosphorylation enrichment, bacterial display (enrichment ratio); higher = better substrate or ligand; peptides without Tyr show the background
[5] = biological target: Fyn (UniProt P06241); assay: as above
Sequence of Fyn (P06241 whole entry, looked up): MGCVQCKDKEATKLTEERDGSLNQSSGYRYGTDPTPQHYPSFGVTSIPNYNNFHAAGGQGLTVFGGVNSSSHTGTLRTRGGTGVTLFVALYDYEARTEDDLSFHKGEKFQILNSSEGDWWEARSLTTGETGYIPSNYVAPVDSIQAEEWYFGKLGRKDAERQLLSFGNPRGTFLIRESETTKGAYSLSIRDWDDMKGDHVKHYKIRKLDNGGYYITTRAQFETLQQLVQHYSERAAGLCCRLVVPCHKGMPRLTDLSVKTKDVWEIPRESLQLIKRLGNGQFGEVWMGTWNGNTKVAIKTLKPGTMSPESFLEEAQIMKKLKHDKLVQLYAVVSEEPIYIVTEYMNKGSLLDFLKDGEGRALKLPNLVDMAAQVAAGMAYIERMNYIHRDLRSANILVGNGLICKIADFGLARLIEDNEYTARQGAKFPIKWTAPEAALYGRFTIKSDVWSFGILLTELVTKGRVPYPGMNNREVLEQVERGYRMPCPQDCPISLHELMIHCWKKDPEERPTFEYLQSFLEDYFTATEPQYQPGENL

[6] = biological target: MERTK (UniProt Q12866); assay: as above
Sequence of MERTK (Q12866 whole entry, looked up): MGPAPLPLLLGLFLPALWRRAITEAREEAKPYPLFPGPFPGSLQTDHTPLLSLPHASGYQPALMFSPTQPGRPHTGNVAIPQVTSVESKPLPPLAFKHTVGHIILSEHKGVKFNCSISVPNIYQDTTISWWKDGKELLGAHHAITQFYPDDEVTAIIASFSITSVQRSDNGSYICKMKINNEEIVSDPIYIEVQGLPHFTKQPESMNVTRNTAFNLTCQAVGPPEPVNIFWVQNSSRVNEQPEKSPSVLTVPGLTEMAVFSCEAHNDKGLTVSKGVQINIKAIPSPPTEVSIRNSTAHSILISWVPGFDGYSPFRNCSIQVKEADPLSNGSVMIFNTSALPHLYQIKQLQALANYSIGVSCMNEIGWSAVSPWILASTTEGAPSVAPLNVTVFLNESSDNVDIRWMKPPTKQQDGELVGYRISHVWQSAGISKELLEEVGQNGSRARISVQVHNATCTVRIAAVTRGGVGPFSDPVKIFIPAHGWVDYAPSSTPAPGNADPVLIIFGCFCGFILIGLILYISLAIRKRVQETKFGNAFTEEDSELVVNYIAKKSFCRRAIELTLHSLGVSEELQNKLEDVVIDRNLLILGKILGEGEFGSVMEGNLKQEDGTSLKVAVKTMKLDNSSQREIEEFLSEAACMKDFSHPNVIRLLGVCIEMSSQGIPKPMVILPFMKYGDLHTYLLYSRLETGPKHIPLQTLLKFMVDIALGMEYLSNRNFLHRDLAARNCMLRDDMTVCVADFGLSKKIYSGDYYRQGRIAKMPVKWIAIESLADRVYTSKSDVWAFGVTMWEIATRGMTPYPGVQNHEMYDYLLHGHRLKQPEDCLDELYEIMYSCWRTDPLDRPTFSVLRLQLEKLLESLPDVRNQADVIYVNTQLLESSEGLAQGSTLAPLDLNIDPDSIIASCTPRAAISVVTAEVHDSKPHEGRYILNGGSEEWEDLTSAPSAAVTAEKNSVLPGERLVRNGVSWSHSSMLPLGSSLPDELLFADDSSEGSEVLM

[7] = biological target: Jak2 (UniProt O60674); assay: as above
Sequence of Jak2 (O60674 whole entry, looked up): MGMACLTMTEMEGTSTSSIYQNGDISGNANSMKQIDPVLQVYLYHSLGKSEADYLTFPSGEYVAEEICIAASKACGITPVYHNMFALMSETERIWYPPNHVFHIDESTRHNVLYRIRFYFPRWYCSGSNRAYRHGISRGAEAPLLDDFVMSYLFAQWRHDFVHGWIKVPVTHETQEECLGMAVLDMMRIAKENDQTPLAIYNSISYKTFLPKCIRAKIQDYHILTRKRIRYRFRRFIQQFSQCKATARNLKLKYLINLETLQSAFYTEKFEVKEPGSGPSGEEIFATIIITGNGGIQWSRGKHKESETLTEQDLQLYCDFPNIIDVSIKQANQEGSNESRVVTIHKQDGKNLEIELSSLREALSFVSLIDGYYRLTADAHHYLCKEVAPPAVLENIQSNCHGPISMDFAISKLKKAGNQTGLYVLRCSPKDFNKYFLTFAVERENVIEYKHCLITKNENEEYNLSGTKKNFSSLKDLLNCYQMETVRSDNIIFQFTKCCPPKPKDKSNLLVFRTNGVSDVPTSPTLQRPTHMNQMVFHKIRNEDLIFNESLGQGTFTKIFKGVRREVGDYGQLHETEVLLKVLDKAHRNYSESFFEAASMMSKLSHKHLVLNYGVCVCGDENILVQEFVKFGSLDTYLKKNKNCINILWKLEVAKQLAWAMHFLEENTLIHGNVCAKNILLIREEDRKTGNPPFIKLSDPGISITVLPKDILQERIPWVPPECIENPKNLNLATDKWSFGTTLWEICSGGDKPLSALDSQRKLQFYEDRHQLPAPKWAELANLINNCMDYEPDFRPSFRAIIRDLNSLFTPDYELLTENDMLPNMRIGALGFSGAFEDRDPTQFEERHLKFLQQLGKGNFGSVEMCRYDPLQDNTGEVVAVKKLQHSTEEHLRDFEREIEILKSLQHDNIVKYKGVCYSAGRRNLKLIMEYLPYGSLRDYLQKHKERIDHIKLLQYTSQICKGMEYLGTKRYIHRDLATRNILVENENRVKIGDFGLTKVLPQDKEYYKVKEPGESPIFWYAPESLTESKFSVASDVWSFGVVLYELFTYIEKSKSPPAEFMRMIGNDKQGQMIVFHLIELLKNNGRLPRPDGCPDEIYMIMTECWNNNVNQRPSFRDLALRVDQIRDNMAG

[8] = system: AncSZ; assay: as above
[9] = biological target: FGFR3 (UniProt P22607); assay: as above
Sequence of FGFR3 (P22607 whole entry, looked up): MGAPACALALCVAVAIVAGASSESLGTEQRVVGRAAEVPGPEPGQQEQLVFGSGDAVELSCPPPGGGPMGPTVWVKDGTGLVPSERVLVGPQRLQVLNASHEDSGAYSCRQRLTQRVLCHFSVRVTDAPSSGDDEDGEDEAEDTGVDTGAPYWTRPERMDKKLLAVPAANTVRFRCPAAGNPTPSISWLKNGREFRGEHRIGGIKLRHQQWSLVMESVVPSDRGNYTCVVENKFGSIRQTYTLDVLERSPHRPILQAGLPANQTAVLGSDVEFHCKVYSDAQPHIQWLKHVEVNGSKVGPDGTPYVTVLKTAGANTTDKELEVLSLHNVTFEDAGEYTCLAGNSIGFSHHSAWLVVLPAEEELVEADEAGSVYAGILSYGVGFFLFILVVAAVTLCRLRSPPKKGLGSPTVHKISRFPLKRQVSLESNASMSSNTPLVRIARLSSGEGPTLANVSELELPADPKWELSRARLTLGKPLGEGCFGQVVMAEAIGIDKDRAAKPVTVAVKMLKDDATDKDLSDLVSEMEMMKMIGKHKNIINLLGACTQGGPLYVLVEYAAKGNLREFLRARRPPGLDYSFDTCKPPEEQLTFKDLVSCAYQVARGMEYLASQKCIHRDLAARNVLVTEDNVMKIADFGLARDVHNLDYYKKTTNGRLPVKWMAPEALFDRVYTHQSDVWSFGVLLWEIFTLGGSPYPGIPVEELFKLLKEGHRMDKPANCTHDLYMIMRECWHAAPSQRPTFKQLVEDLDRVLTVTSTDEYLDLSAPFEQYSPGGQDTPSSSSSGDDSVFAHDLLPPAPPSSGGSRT

[10] = biological target: EPHB1 (UniProt P54762); assay: as above
Sequence of EPHB1 (P54762 whole entry, looked up): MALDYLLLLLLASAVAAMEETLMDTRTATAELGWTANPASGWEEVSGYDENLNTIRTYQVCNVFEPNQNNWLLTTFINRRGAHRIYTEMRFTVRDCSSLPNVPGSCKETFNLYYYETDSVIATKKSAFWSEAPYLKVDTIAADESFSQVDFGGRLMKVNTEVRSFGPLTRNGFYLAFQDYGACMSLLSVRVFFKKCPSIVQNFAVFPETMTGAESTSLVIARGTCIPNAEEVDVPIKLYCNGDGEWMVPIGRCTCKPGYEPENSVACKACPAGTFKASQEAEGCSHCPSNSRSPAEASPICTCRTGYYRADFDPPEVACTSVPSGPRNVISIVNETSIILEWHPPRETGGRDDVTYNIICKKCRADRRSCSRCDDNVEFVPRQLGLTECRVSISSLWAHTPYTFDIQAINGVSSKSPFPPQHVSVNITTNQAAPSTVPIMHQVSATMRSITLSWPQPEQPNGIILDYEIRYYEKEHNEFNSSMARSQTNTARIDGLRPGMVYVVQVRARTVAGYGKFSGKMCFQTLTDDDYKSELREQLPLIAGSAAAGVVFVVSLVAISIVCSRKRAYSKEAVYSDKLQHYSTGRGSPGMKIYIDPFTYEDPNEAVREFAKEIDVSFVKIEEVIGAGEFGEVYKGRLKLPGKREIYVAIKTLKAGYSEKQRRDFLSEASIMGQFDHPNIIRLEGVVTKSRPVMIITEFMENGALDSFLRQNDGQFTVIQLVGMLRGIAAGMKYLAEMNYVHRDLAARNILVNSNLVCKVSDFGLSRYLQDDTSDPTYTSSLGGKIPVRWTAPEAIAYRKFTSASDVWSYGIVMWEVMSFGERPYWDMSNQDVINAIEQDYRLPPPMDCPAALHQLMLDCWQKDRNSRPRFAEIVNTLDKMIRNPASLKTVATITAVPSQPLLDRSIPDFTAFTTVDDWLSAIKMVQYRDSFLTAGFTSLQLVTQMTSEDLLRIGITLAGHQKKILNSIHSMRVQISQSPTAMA

[11] = biological target: FGFR1 (UniProt P11362); assay: as above
[12] = system: c-Src; assay: as above
[13] = system: c-Abl (mouse); assay: as above
[14] = biological target: Fes (UniProt P07332); assay: as above
[15] = biological target: Hck (UniProt P08631); assay: as above
Sequence of Hck (P08631 whole entry, looked up): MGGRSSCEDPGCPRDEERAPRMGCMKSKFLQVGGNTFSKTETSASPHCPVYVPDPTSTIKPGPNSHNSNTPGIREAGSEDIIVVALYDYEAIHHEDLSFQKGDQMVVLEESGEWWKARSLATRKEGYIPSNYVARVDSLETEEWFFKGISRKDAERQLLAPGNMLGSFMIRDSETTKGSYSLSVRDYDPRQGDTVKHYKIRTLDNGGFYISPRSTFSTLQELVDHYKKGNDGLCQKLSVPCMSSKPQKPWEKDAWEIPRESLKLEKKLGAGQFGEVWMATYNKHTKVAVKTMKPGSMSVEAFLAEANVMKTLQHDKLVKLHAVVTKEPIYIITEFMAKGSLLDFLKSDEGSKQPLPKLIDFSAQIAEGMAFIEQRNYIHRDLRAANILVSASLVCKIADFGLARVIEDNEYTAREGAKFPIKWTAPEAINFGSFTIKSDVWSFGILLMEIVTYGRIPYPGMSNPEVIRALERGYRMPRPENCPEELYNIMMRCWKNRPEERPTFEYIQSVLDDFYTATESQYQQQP

[16] = system: Fer (mouse); assay: as above
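For SH2 binding enrichment of the phosphorylated peptide, bacterial display in this document: peptide library displayed on the E. coli surface as eCPX fusions, selected cells deep-sequenced, score is each peptide's frequency after selection divided by its frequency in the input.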
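For phosphorylation enrichment, bacterial display in this document: 11-residue human phosphosite peptides and single-mutation variants displayed on the E. coli surface, counted by deep sequencing, each peptide's frequency after selection divided by its frequency in the unselected input library; frequency after pTyr selection over input frequency; kinase dosed for 20-30% of maximal phosphorylation in three min.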

| Sequence | SH2 binding enrichment [1] | SH2 binding enrichment [2] | SH2 binding enrichment [3] | phosphorylation enrichment [4] | phosphorylation enrichment [5] | phosphorylation enrichment [6] | phosphorylation enrichment [7] | phosphorylation enrichment [8] | phosphorylation enrichment [9] | phosphorylation enrichment [10] | phosphorylation enrichment [11] | phosphorylation enrichment [12] | phosphorylation enrichment [13] | phosphorylation enrichment [14] | phosphorylation enrichment [15] | phosphorylation enrichment [16] |
| --- | --- | --- | --- | --- | --- | --- | --- | --- | --- | --- | --- | --- | --- | --- | --- | --- |
| GGYNNYGYGSD [HNRNPH3_Y159_N163S] | 0.808 | 0.951 | 0.575 | 2.4 | 0.379 | 0.479 | 0.611 | 0.71 | 0.467 | 1.48 | 0.406 | 0.38 | 0.608 | 0.697 | 0.475 | 0.421 |
| RLPNGYGLAYR [DLK1_Y262_S260N] | 1.15 | 0.656 | 0.55 | 0.528 | 0.961 | 0.453 | 0.509 | 0.706 | 0.573 | 0.416 | 0.663 | 0.423 | 0.413 | 0.737 | 0.571 | 0.504 |
| TESALYGCTIL [MAP3K21_Y724_V728I] | 1 | 0.46 | 0.625 | 0.989 | 6 | 1.57 | 1.65 | 1.17 | 1.19 | 0.68 | 0.5 | 6.06 | 1.59 | 1.62 | 4.18 | 4.72 |
| QGLRLYRSHLA [BTK_Y617_P619S] | 1.21 | 1.03 | 0.888 | 0.408 | 0.571 | 0.417 | 0.75 | 0.935 | 0.5 | 0.718 | 0.552 | 0.51 | 0.801 | 1.04 | 0.38 | 0.527 |
| DASAVYLRDFQ [PLCG2_Y242_H244R] | 0.95 | 0.471 | 0.553 | 0.492 | 0.562 | 0.675 | 0.894 | 0.769 | 0.58 | 0.506 | 0.425 | 0.693 | 0.986 | 0.963 | 0.544 | 0.452 |
| SEPDLYFDPRG [PKP1_Y160_C161Y_YF] | 0.9 | 0.492 | 0.741 | 11.4 | 4.59 | 4.69 | 3.41 | 2.86 | 6.9 | 13.1 | 9.25 | 4.46 | 2.71 | 1.14 | 9.33 | 0.841 |
| DFPIGYPSFLA [TBCK_Y153_YF] | 0.635 | 0.364 | 0.578 | 0.503 | 0.517 | 0.37 | 0.748 | 0.79 | 0.631 | 0.477 | 0.578 | 0.535 | 0.594 | 1.07 | 0.481 | 0.459 |
| SVTCTYSPALD [TP53_Y126_N131D] | 1.01 | 0.599 | 0.532 | 0.816 | 0.641 | 0.466 | 1.51 | 1.74 | 1.01 | 0.882 | 0.616 | 0.745 | 1.24 | 1.76 | 0.656 | 0.821 |
| EGWQVYRLGTR [MISP_Y95_A99T] | 1.03 | 0.546 | 0.871 | 0.457 | 1.78 | 0.325 | 0.733 | 0.846 | 0.645 | 0.416 | 0.44 | 3.69 | 0.525 | 0.75 | 1.03 | 0.45 |
| DSMQSYDLDFP [UNC13B_Y243_YF] | 0.782 | 0.605 | 0.686 | 0.546 | 0.48 | 0.453 | 1.03 | 1.15 | 0.646 | 0.642 | 0.537 | 0.569 | 0.623 | 1.02 | 0.461 | 0.541 |
| SRFQFYFQQKG [CHKB_Y381] | 0.692 | 0.473 | 0.728 | 0.612 | 0.48 | 0.369 | 1.47 | 1.63 | 1.02 | 0.938 | 0.579 | 0.379 | 0.99 | 1.56 | 0.551 | 0.597 |
| TLARLYHPDST [LRIG1_Y1029] | 0.646 | 0.372 | 0.681 | 0.549 | 0.575 | 0.355 | 0.609 | 0.508 | 0.429 | 0.422 | 0.344 | 0.302 | 0.672 | 0.743 | 0.416 | 0.364 |
| ELTAKYLNYYR [P3H4_Y181_Q186R] | 2.44 | 0.666 | 0.948 | 0.512 | 0.369 | 0.496 | 0.616 | 0.639 | 0.541 | 0.606 | 0.498 | 0.374 | 0.498 | 0.748 | 0.419 | 0.392 |
| KIVQDYLEKFF [MMP8_Y36_T32I_YF] | 1.08 | 0.691 | 1.19 | 0.595 | 0.614 | 0.512 | 1.02 | 1.19 | 0.808 | 0.662 | 0.616 | 0.556 | 0.956 | 1.38 | 0.773 | 0.65 |

Further lines, with some results ahead:

| SH2 binding enrichment [1] | SH2 binding enrichment [2] | SH2 binding enrichment [3] | Sequence | phosphorylation enrichment [4] | phosphorylation enrichment [5] | phosphorylation enrichment [6] | phosphorylation enrichment [7] | phosphorylation enrichment [8] | phosphorylation enrichment [9] | phosphorylation enrichment [10] | phosphorylation enrichment [11] | phosphorylation enrichment [12] | phosphorylation enrichment [13] | phosphorylation enrichment [14] | phosphorylation enrichment [15] | phosphorylation enrichment [16] |
| --- | --- | --- | --- | --- | --- | --- | --- | --- | --- | --- | --- | --- | --- | --- | --- | --- |
| 0.95 | 2.56 | 0.644 | NTGVYYDLYGG [PTPN11_Y63_D61V] | 5.04 | 6.07 | 7.75 | 2.33 | 1.88 | 10.8 | 6.16 | 13.7 | 5.31 | 0.715 | 1.18 | 6.5 | 2.49 |
| 0.819 | 0.519 | 0.529 | VVEVTYDDVPI [FLNB_Y1308] | 1.07 | 1.76 | 0.688 | 1.1 | 2.02 | 0.947 | 1.57 | 0.742 | 1.3 | 0.805 | 1.56 | 1.82 | 5.94 |
| 0.858 | 0.369 | 0.942 | RKELFYKADGE [SERPINC1_Y272] | 0.548 | 0.519 | 0.659 | 0.893 | 1.12 | 0.638 | 0.824 | 0.713 | 0.63 | 0.779 | 1.08 | 0.881 | 0.783 |
| 0.749 | 0.481 | 0.729 | PAVGIYNDNIN [CDCP1_Y707] | 0.685 | 1.29 | 0.641 | 0.925 | 1.07 | 0.575 | 0.806 | 0.612 | 1.12 | 0.71 | 1.08 | 1.17 | 0.6 |
| 0.602 | 0.415 | 0.322 | REGAKYVSHGA [ASS1_Y113] | 0.4 | 0.378 | 0.403 | 0.47 | 0.5 | 0.501 | 0.553 | 0.385 | 0.275 | 0.339 | 0.628 | 0.399 | 0.566 |
| 0.759 | 0.464 | 0.4 | FPRAWCRRSIA [KIAA1109_Y4272_Y4272C] | 0.484 | 0.557 | 0.562 | 0.588 | 0.908 | 0.441 | 0.519 | 0.48 | 0.523 | 0.641 | 0.686 | 0.466 | 0.455 |
| 0.622 | 0.42 | 0.617 | CNPLCYPTIMI [OR6K6_Y160_R159C] | 0.524 | 0.408 | 0.917 | 0.721 | 0.867 | 0.828 | 0.518 | 1.71 | 0.416 | 0.596 | 0.821 | 0.442 | 1.37 |
| 0.762 | 0.47 | 0.938 | HVLEEYKPKQG [SAXO2_Y37_P34L] | 0.683 | 1.19 | 0.57 | 1.36 | 0.5 | 1.39 | 0.487 | 0.656 | 0.424 | 0.698 | 0.834 | 0.646 | 0.552 |
| 0.918 | 0.568 | 0.878 | PNRILYGDFRQ [MYH6_Y717] | 0.731 | 6.85 | 0.622 | 0.862 | 0.823 | 0.688 | 0.538 | 0.501 | 5.52 | 0.658 | 1.02 | 4.43 | 0.5 |
| 0.918 | 0.897 | 0.955 | IVFTSYFLTIL [TAS2R16_Y239] | 0.709 | 0.578 | 0.476 | 1.76 | 1.45 | 0.976 | 0.676 | 0.641 | 0.514 | 1.05 | 1.89 | 0.633 | 0.511 |
| 0.65 | 0.495 | 0.727 | MFCAGYDTKQE [F10_Y407] | 0.805 | 0.539 | 0.48 | 1.38 | 1.11 | 0.877 | 0.81 | 0.518 | 0.584 | 0.793 | 1.47 | 0.632 | 0.652 |
| 0.989 | 0.554 | 0.842 | LFSDHYSPSGR [TMPRSS12_Y23_YF] | 0.452 | 0.39 | 0.382 | 0.473 | 0.654 | 0.459 | 0.545 | 0.446 | 0.363 | 0.331 | 0.574 | 0.455 | 0.351 |
| 1.32 | 2.58 | 1.43 | RPGSGYTNIMR [PKLR_Y564] | 0.588 | 0.919 | 0.579 | 0.532 | 0.64 | 0.415 | 0.345 | 0.439 | 0.707 | 0.723 | 0.586 | 0.784 | 0.429 |
| 0.918 | 0.538 | 0.816 | FAELMYTGFWH [ASS1_Y322_V321M] | 4.76 | 6.85 | 7.12 | 2.02 | 2.17 | 2.02 | 3.52 | 2.32 | 6.43 | 3.16 | 1.67 | 4.7 | 5.42 |
| 1.46 | 0.804 | 0.968 | LKVQVYILGRE [ASS1_Y359_G356V] | 1.88 | 1.13 | 1.36 | 3.33 | 3.58 | 1.95 | 1.58 | 1.34 | 1.39 | 2.44 | 5.15 | 1.49 | 1.59 |
| 0.76 | 0.572 | 0.581 | INVTIYGKTFR [EFHC1_Y177_I174V] | 0.588 | 0.547 | 0.644 | 1.1 | 1.18 | 0.756 | 0.631 | 0.539 | 0.641 | 0.868 | 1.29 | 0.609 | 0.625 |
| 0.933 | 0.498 | 0.675 | EDASEYFENYI [PARP4_Y214] | 0.66 | 0.613 | 0.527 | 1.15 | 1.62 | 0.83 | 0.549 | 0.84 | 0.539 | 0.658 | 1.21 | 0.597 | 0.51 |
| 0.949 | 0.711 | 0.709 | KRPAVYIDEEA [EPM2A_Y304] | 0.514 | 0.567 | 0.518 | 0.901 | 1.07 | 0.704 | 0.547 | 0.598 | 0.542 | 0.746 | 1.07 | 0.485 | 0.548 |
| 0.884 | 0.645 | 0.372 | PSRKDYETFQP [CTNND2_Y1154_YF] | 1.52 | 0.605 | 0.572 | 1.11 | 1.22 | 0.667 | 1.04 | 0.558 | 0.737 | 0.907 | 1.21 | 0.73 | 0.473 |
